The record followed here is patent publication US20200354475A1 (KITE PHARMA, published 2020).

The test has as its target T1, CAR comprising the anti-CD19 scFv FMC63 (SEQ ID NO: 1).
T1 construct: also called FMC63 CAR; CAR presenting the anti-CD19 scFv FMC63; not shown: rest of the CAR (hinge, transmembrane and signalling domains) is not described for the constructs used
Put plainly: immunohistochemistry on fixed cell pellets of CAR T cells presenting the FMC63 scFv, PBMC as control. How it is done:
Several antibodies disclosed herein, (Clones 7 and 13) were assessed with respect to their ability to function as reagents in immunohistochemistry (IHC) studies. To create the fixed cell pellets for IHC staining, ˜2e6 CAR T cells presenting the anti-CD19 scFv FMC63 (SEQ ID NO: 1) were centrifuged and washed with PBS. The cells were resuspended in PBS containing 0.45% paraformaldehyde (PFA) and incubated on a shaking platform for 2 hours at room temperature. After the incubation, the cells were washed once more with PBS and resuspended in PBS with 5% BSA.

T1 sequence (chain, as listed by the source): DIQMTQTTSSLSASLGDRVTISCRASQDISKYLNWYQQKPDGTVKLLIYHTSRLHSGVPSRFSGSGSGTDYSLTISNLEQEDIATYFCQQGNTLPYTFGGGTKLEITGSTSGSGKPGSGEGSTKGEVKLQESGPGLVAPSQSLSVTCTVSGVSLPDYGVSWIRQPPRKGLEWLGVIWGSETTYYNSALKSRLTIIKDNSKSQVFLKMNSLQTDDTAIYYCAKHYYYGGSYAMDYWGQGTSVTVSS

B1: Clone 7 (antibody, V domains shown)
VH: QEQLEESGGDLVKPGGTLTVTCKASGFSFSNNGICWVRQAPGKGLEWIGCLYVGSSDTTYYASWAKGRFTISKSSSTTVTLQMTSLTVADTATYFCTINLGLWGPGTLVTVSS
VL: AIVVTQTPSSKSVPVGGTVTINCQASESVYNSDWLAWYQQKPGQPPKQLIYAASTLASGVPSRFKGSGSGTQFTLTISDVVCDDAATYYCAGYKSSSTDGIAFGGGTEVVVKG
notes: Rabbit monoclonal antibody from a hybridoma; also called antibody Clone 7
For the molecule B1, the binding result is listed as “binds”.
